Source: patent US20220110851A1

Key:
[1] = biological target: acetylcholine receptor on AchR-overexpressed TE671 cells; experiment: cell-based or functional assay
[2] = biological target: acetylcholine receptor protein; experiment: SPR, AchR on CM5 chip, positive control

## Synake (peptide)
[1]
  IC50 value for AchR (AchR inhibitory effect in TE671 cells): 75 µM
[2]
  Kd: 2300 µM

## bungarotoxin
[1]
  IC50 value for AchR (AchR inhibitory effect in TE671 cells): 0.0075 µM
